Paper PMC6124603 (Journal of Visualized Experiments : JoVE, 2018)

Tests used:
[1] = target: CD22 construct with smaller N-linked glycans (human) (UniProt P20273); assay: BLI
[2] = target: T1, CD22 extracellular domain (CD22 ECD) produced in HEK293F cells (Homo sapiens, UniProt P20273); assay: BLI
[3] = target: T1, CD22 extracellular domain (CD22 ECD) …; assay: ITC

T1 sequence (P20273 20-687): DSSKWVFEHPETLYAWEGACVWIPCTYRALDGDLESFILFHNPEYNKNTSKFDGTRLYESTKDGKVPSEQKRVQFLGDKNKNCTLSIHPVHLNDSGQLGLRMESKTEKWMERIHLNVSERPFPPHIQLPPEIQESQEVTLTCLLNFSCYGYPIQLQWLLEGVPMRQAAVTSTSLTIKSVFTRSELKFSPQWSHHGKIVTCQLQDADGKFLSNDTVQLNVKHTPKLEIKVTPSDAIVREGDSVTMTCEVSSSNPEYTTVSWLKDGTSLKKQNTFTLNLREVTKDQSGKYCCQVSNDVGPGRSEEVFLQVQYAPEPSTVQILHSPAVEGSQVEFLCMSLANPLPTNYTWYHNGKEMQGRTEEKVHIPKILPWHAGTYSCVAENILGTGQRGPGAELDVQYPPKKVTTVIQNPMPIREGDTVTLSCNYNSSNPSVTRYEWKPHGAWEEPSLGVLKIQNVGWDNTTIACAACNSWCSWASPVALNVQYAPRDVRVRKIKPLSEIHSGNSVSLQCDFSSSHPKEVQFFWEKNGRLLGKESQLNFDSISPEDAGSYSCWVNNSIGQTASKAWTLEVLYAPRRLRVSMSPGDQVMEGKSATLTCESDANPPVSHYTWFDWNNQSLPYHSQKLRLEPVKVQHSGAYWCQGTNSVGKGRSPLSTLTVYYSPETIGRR
CD22 construct with smaller N-linked glycans (human), sequence (P20273 20-687): as above

B1: epratuzumab Fab (Fab, V domains shown)
VH: QVQLVQSGAEVKKPGSSVKVSCKASGYTFTSYWLHWVRQAPGQGLEWIGYINPRNDYTEYNQNFKDKATITADESTNTAYMELSSLRSEDTAFYFCARRDITTFYWGQGTTVTVSS
VL: DIQLTQSPSSLSASVGDRVTMSCKSSQSVLYSANHKNYLAWYQQKPGKAPKLLIYWASTRESGVPSRFSGSGSGTDFTLTISSLQPEDIATYYCHQYLSSWTFGGGTKLEIK
Kd [1]: 24 nM
Kd [2]: 327 nM
Kd [3]: 188 nM
